The record followed here is publication PMC4663164 (The Biochemical journal, 2015).

The target of series [1] is CK1-phosphorylated HMR-1^1108–1223 (polyhistidine-tagged) (C. elegans). The series can be described thus: liposome co-flotation.
Series [2] addresses HMR-1^T1215E,S1218E (polyhistidine-tagged HMR-1^1108–1223) (C. elegans). As to the kind of experiment: liposome co-flotation.
For series [3], the target named is HMR-1^S1212E (polyhistidine-tagged HMR-1^1108–1223) (C. elegans). The series can be described thus: liposome co-flotation.
The target of series [4] is HMR-1^S1212E,T1215E,S1218E (polyhistidine-tagged HMR-1^1108–1223) (C. elegans). As to the kind of experiment: liposome co-flotation.
Series [5] concerns the molecule itself. The series can be described thus: SEC-MALS.

For the molecule “HMP-1/HMP-2 complex (untagged, purified) (from UniProt P90947 1-927; O44326 1-678)”, the fold enhancement in HMP-1/HMP-2 recovery against unphosphorylated HMR-1 in series [1] was 6 fold. The fold increase in HMP-1/HMP-2 binding against unmodified HMR-1^1108–1223 in series [2] is 1.4 fold. In series [3], this molecule yielded a fold increase in HMP-1/HMP-2 recovery against unmodified HMR-1^1108–1223 of 1.8 fold. The molecule further returned a fold increase in HMP-1/HMP-2 association against unmodified HMR-1^1108–1223 in series [4] of 2.2 fold.

B1: recombinant full-length HMP-2 (natural protein, C. elegans, UniProt O44326 1-678, looked up)
chain: MLLHSTNSYSIFTDHEVETRTSRIRSAMFPDWIPPTSAAEATNSTTSIVEMMQMPTQQLKQSVMDLLTYEGSNDMSGLSLPDLVKLMCDHDESVVARAVHRAYMLSREDPNFFNAPGFDHRSFVEALMAASKSSNVNVRRNAIGALSHMSEQRGGPLLIFRSGGLAEIIRMLYDSLESVVHYAVTTLRNLLMHVSDSRAQARALNAVEALTPHLHKTNPKLLAQVADGLYFLLIDDAPSKITFLSLLGPQILVSILREYSDHRKLIYTVVRCIRSLSVCPSNKPALISLGCLPALYVELCTAKDERSQTAILVAMRNLSDSATNEENLTQLIIKLLEIIRVANDGMTACACGTLSNLTCNNTRNKQTVCSHGGIDALVTAIRRLPEVEEVTEPALCALRHCTARHSLAEEAQSELRFCQAFPVILDQLETLRTPVIKAALGVIRNSALLQTNLIELTQEQTANGHTAVSLTMDILRRAITAIEENPDIAVDGVPMWGVIEGAVSALHQLANHPAVAAACCDDIGQVGNPECPPFLDLLHRLLAHPRLGSMDDEVLEREILGLLYQLSKRPDGARAVESTGVSALLMESRGSQYKSVVTYANGVLSNLKRGDSAAIMNMSNSYDYEMSGSAADWQRDGLERELFAEMYPTNDGGHSESINMALNNSQMRPNHNWYDTDL
B1: the “stoichiometry N” value in series [5] came to 2.
